Residue numbers refer to the chain shown, from its start. Each block holds one molecule with its values, some of them ahead of it.
Experiments:
human BVR [1] = biological target: T1, human BVR (Homo sapiens, UniProt P53004, A154S/E160D/G155D); assay: BVR autophosphorylation; format: biochemical; settings: pH 8.4; 20 mM Zn acetate, also with Mn+2
T1 construct: made in house
T1 sequence (P53004 1-296 A154S/G155D/E160D): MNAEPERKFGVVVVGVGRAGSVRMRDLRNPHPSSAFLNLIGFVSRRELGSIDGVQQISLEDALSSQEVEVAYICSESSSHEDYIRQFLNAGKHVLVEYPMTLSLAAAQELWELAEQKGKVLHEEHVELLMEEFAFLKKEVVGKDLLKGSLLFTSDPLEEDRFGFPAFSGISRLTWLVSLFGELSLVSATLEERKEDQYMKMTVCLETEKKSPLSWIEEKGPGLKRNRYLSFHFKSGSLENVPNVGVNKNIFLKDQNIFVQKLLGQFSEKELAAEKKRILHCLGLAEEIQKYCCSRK
Method: (§1) BVR autophosphorylation and kinase activity: To detect autophosphorylation of BVR, GST-hBVR of wild type (wt) and mutant variants were incubated in 50 mM HEPES buffer (pH 8.4) in the presence of 30 mM MnCl2 and 1 mM DTT for 2 h at 30° C. The reaction was started with the addition of 10 μM ATP labeled with 10 μCi [γ-^32P]-ATP and was stopped with the addition of Laemmli sample buffer. Samples were boiled for 3 min and applied to a 8% SDS-PAGE gels, transferred to a PVDF membrane, and then visualized by autoradiography. To measure kinase activity, GST-BVR (5 μg) was incubated in 50 μl kinase buffer containing 50 mM HEPES buffer (pH 8.4), 20 mM MgCl2, 30 mM MnCl2, 1 mM DTT and 10 μM ATP labeled with 10 μCi [γ-^32P]-ATP in the presence of 5 μg substrates: IRS-1 or Raytide or poly glu/tyr (4:1) for 2 h at 30° C. The reaction was started with the addition of ATP and terminated by adding 120 μl 10% H3PO4. 100 μl aliquots were directly transferred to P81 Whatman filters which were subsequently washed extensively in 0.75% phosphoric acid at room temperature. Finally, the filters were submerged in acetone for 5 min, dried, and retained counts were measured using a Beckman LS 6500 liquid scintillation counter (Beckman Coulter, Fullerton, Calif.).

human BVR [2] = biological target: T1, human BVR; assay: BVR kinase activity on substrates (IRS-1, IRS-1 peptides, Raytide, poly glu/tyr); format: biochemical; settings: peptide as substrate of BVR, [γ-32P]-ATP
Method: as §1

BVR in 293A cells [3] = assay: BVR reductase activity in insulin-treated 293A cells; format: cell-based, human; settings: insulin 50 nM
Method: (§2) Cell culture and transfection and infection of 293A: 293A cells were grown in 10 cm-plates with Dulbecco's Modified Eagle Medium (DMEM) (Invitrogen, Carlsbad, Calif.) containing 10% fetal bovine serum and 1% penicillin-G/streptomycin for 24 h or until a confluency of 70% was reached. Cells were subsequently transfected with 4 μg of pcDNA3 mutant BVR Y^198 using Transfectin Lipid Reagent (Bio-Rad, Hercules, Calif.), according to the manufacturer's procedure and incubated for 48 h at 37° C. In addition, non-transfected cells were infected with pSuper-Retro-siBVR for 24 h in the presence of 4 μg/ml polybrene. Cells were starved in serum-free DMEM 16 h prior to insulin treatment (50 nM).
(§3) Measurement of BVR Reductase Activity: 293A cells treated with insulin were lysed in buffer containing a protease inhibitor cocktail and phosphatase inhibitors (10 mM NaF, […]). BVR activity was measured at pH 6.7 using NADH as the cofactor as described previously (Huang et al., J. Biol. Chem. 264:7844-9 (1989), which is hereby incorporated by reference in its entirety). The rate of conversion of biliverdin to bilirubin was determined as the increase in absorbance at 450 nm at 25° C. Specific activity is expressed as μmol of bilirubin/min/mg of protein.

BVR in 293A cells [4] = assay: BVR tyrosine phosphorylation in insulin-treated 293A cells (immunoprecipitation and immunoblotting); format: cell-based, human; settings: within 8 min after insulin treatment
Method: as §2
Immunoprecipitation and immunoblotting: 293A Cells were plated in 10 cm plates and transfected with appropriate plasmids. Prior to collection, cells were washed twice with cold PBS and lysed in 300 μl cold modified RIPA buffer containing 50 mM Tris (pH7.4), 75 mM NaCl, 2 mM EDTA, 2 mM EGTA, 10 mM NaF, 1% Nonidet P-40, 0.5% sodium deoxycholate, 0.5% sodium vanadate, 1 mM PMSF, 10 μg/ml aprotinin, 1 mM benzamidine, 10 μg/ml leupeptine, and 10 μg/ml pepstatin. Cells sonicated (2×3 sec each) and centrifuged at 10,000×g for 15 min. Protein concentration was determined by Bradford assay (Bio-Rad, Hercules, Calif.). […]

[5] = Reductase activity of purified BVR; format: biochemical, human; settings: purified BVR not phosphorylated by IRK
Method: as §3

[6] = biological target: T2, insulin receptor tyrosine kinase (IRK) (Homo sapiens, UniProt P06213); assay: BVR phosphorylation by the insulin receptor tyrosine kinase (IRK), in vitro [32P]-ATP assay; format: biochemical; settings: for time course of phosphorylation by IRK: incubation with IRK up to 3-4 h, pH 8.0
T2 construct: the 48 kDa cytoplasmic domain of the β-subunit of IRK; purchased Biomol International (Plymouth, Pa.)
T2 sequence (P06213 980-1382 limits assumed): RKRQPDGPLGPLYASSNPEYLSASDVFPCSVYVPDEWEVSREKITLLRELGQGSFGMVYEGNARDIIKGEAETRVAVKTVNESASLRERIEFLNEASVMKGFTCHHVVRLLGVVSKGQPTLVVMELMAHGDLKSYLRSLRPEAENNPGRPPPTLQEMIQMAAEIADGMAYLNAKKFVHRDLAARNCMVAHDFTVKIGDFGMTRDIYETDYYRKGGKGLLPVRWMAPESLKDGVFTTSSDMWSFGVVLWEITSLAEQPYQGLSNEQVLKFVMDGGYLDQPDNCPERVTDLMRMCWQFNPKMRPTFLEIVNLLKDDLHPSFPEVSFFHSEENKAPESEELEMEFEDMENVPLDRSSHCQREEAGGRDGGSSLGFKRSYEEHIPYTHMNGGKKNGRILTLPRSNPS
Method: BVR phosphoiylation by the insulin receptor tyrosine kinase (IRK): Phosphorylation of BVR by IRK was examined using GST-HBVR fusion protein and the 48 kDa cytoplasmic domain of the β-subunit of IRK. BVR (5 μg) was incubated in 50 μl of IRK kinase buffer containing 50 mM HEPES (pH 8.0), 20 mM MgCl2, 1 mM DTT in the presence of 0.05 μg IRK and 10 μM ATP labeled with 10 μCi [γ-^32P]-ATP. The reaction was started with the addition of labeled ATP and incubated for 2-4 h. Reactions were terminated by addition of Laemmli sample buffer and boiled for 3 min. Samples were subjected to 8% SDS-PAGE and transferred to PVDF membranes for autoradiography.

human BVR [7] = assay: BVR kinase activity on substrates (IRS-1, IRS-1 peptides, Raytide, poly glu/tyr); format: biochemical; settings: protein tested as kinase for IRS; Mn+2 and Mg+2 present
Method: as §1

293A cells = assay: Insulin-mediated glucose uptake (2-deoxy 1-[3H] glucose); format: cell-based, human; settings: insulin 15 min, vs controls infected with vector alone, p≦0.05
Method: as §2
Glucose uptake: Glucose uptake was assessed by measuring 2-deoxy 1-[^3H] glucose (2DG) absorption as described by (Braiman et al. (Mol. Endocrinol. 13:2002-12 (1999)), which is hereby incorporated by reference), with minor modifications. Briefly, after insulin treatment, cells in 6-wells plates were incubated in 1 ml PBS containing 5 mM glucose and 1 μCi/ml 2DG for 15 min. Solution was aspirated rapidly and wells were washed 3 times with cold PBS. Cells were solubilized by addition of 200 μl 1% (w/v) SDS. Radioactivity was measured and data was normalized to protein concentration. Non-specific uptake was determined in the presence of 200 mM of glucose and was subtracted from the total uptake. […]

human BVR [8] = assay: BVR autophosphorylation; format: biochemical; settings: pH 8.4, 30 mM MnCl2, 2 h, 30° C.
Method: as §1

- effect of metal ion on BVR autophosphorylation (human BVR [1]): inhibitory to BVR autophosphorylation
Molecule: CC(=O)[O-].CC(=O)[O-].[Zn+2] [Zn^+2, Zn acetate, reference compound]

- phosphorylation of IRS-1 peptide by BVR (human BVR [2]): 1198±230 cpm
Molecule: Arg-Thr-Glu-Ser^307-Ile-Thr-Ala-Thr-Ser^312-Pro-Ala-Ser^315-Met-Val-Gly-Gly-Lys-Pro (RTESITATSPASMVGGKP; peptide fragment of Homo sapiens Insulin Receptor Substrate (Peptide 2)) [IRS-1 peptide (#2), reference compound]

- phosphorylation of IRS-1 peptide by BVR (human BVR [2]): 1049±78 cpm
Molecule: Lys-Lys-His-Ala-Asp-Asp-Gly-Ala-Met-Pro-Met-Ser^312-Pro-Gly-Val-Ala (KKHADDGAMPMSPGVA; mutant peptide fragment of Homo sapiens Insulin Receptor Substrate (Peptide 1)) [mutant IRS-1 peptide (#1), reference compound]

Molecule: insulin: Human insulin purchased from Sigma-Aldrich
- increase in BVR reductase activity (BVR in 293A cells [3]; 1 h after treatment): 2 fold
- BVR reductase activity, later time (BVR in 293A cells [3]; 6 h after treatment): gradually returned to basal level
- BVR tyrosine phosphorylation (BVR in 293A cells [4]): dramatic increase in phosphorylation

B1: biliverdin reductase (protein)
chain: T1 sequence (P53004 1-296 A154S/G155D/E160D)
modifications: left off: a dimerising Fc or GST
- BVR reductase activity of the control [5]: 43.8 μmol per min per mg
- time course of phosphorylation by IRK [6]: detected when assessed at 1 h, and gradually increased up to 4 h

B2: HO-1: heme oxygenase isozyme, used as a control for kinase activity (protein, UniProt P09601 1-288, looked up)
Heme oxygenase 1: MERPQPDSMPQDLSEALKEATKEVHTQAENAEFMRNFQKGQVTRDGFKLVMASLYHIYVALEEEIERNKESPVFAPVYFPEELHRKAALEQDLAFWYGPRWQEVIPYTPAMQRYVKRLHEVGRTEPELLVAHAYTRYLGDLSGGQVLKKIAQKALDLPSSGEGLAFFTFPNIASATKFKQLYRSRMNSLEMTPAVRQRVIEEAKTAFLLNIQLFEELQELLTHDTKDQSPSRAPGLRQRASNKVQDSAPVETPRGKPPLNTRSQAPLLRWVLTLSFLVATVAVGLYAM
- IRS phosphorylation (human BVR [7]): did not significantly effect IRS phosphorylation

- time course of phosphorylation by IRK [6]: less effective substrate for IRK
- decrease of BVR phosphorylation by IRK caused by point mutation ([6]; mutant vs wtBVR, IRK 2 h at 30° C.): ~70%
B3: Y^198: human BVR point mutant, DQYMK to DQFMK (protein, UniProt P53004 3-296, looked up, variant Y198F)
Biliverdin reductase A: AEPERKFGVVVVGVGRAGSVRMRDLRNPHPSSAFLNLIGFVSRRELGSIDGVQQISLEDALSSQEVEVAYICSESSSHEDYIRQFLNAGKHVLVEYPMTLSLAAAQELWELAEQKGKVLHEEHVELLMEEFAFLKKEVVGKDLLKGSLLFTAGPLEEERFGFPAFSGISRLTWLVSLFGELSLVSATLEERKEDQFMKMTVCLETEKKSPLSWIEEKGPGLKRNRYLSFHFKSGSLENVPNVGVNKNIFLKDQNIFVQKLLGQFSEKELAAEKKRILHCLGLAEEIQKYCCSRK
- insulin-mediated glucose uptake (293A cells): increased significantly
- autophosphorylation of BVR mutants (human BVR [8]): did not result in significant changes in autophosphorylation of BVR

B4: G^17: human BVR point mutant in ATP binding domain, GVGRA to GVARA (protein, UniProt P53004 3-296, looked up, variant G17A)
Biliverdin reductase A: B3 Biliverdin reductase A with G15A, F196Y
- IRS phosphorylation (human BVR [7]): for the most part, prevented IRS phosphorylation by BVR

B5: HO-2: heme oxygenase isozyme, used as a control for kinase activity (protein, UniProt P30519 2-316, looked up)
Heme oxygenase 2: SAEVETSEGVDESEKKNSGALEKENQMRMADLSELLKEGTKEAHDRAENTQFVKDFLKGNIKKELFKLATTALYFTYSALEEEMERNKDHPAFAPLYFPMELHRKEALTKDMEYFFGENWEEQVQCPKAAQKYVERIHYIGQNEPELLVAHAYTRYMGDLSGGQVLKKVAQRALKLPSTGEGTQFYLFENVDNAQQFKQLYRARMNALDLNMKTKERIVEEANKAFEYNMQIFNELDQAGSTLARETLEDGFPVHDGKGDMRKCPFYAAEQDKGALEGSSCPFRTAMAVLRKPSLQFILAAGVALAAGLLAWYYM
- IRS phosphorylation (human BVR [7]): did not significantly effect IRS phosphorylation
